Laboratory results taken from patent publication US20070243589A1 (Pfizer, published 2007).
Changes are numbered by the printed parent chain.

B1: 166G05 scFv (non-germlined) (scFv)
scFv: EVQLVQSGAEVKKPGASVKVSCQASGYTFSDYYIHWVRQTPGQGFEWMGWVNPDTGGTRYAQKFQGWVTMTRDMSNTTAYMELPRLRDDDTAVYYCARDLTGFDPFDIWGQGTLVTVSSGGGGSGGGGSGGGGSAQSVLTQPPSVSVAPGKTATITCGGNNFRNKRVHWYQQRPGQAPVLVIYYDSDRPSGIPERFSGSRSGNTATLTISRVEAGDEADFYCQVWDFLTDSGSFGGGTKLTVLGAAAH
notes: Optimized clone derived from GIL68
B2: 355B06 scFv (non-germlined) (scFv)
scFv: EVQLVQSGAEVKKPGASVKVSCQASGYTFTDYYMHWVRQAPGQGLEWVGWINPYTGSAFYAQKFRGRATMTRNTSINTAYMELSRLGSDDTAVYYCAREPEKFGESSGQLWGRGTMVTISSGGGGSGGGGSGGSGSAQAVLTQPSSVSGAPGQRVTISCTGSSSNIGPGYGVHWYQQLPGTAPKLLIYGDSNRPSGVPDRFSGSKSGTSASLAITGLQAEDEADYYCQSYDSGLSGYVFGTGTQLTVLSA
notes: Optimized clone derived from GIL92
B3: 367D04 scFv (non-germlined) (scFv)
scFv: EVQLVESGGGVVRPGGSLRLSCAASGFTFDDYGMNWVRQAPGKGLEWVSGVNWNGGTRDYAASVKGRFTISRDNAKNSLYLQMNSLRAEDTALYYCARGWYSGSPWSLGHWGRGTLVTVSSGGGGSGGGGSGGSGGGSGGSGGGSSGGGSGGGGSAQAVLTQPSSVSGSPGQSVTISCTGASGDVGAYNFVSWYQQHPGKTPKLIIYDVNKRPSGVSNRFSGSKSGNTASLTISRLQAEDESDYYCSSYTSRYTTEFGGGTKVTVLGAAAH
notes: Optimized clone derived from GIL60
B4: 375G06 scFv (non-germlined) (scFv)
scFv: EVQLVQSGAEVKKPGASVKVSCQASGYTFSDYYIHWVRQTPGQGFEWMGWVNPDTGGTRYAQKFQGWVTMTRDMSNTTAYMELPRLRDDDTAVYYCARDLTGYDYYDRWGQGTLVTVSSGGGGSGGGGSGGGGGGSGGGGGGSGGGGSAQSVLTQPPSMSVAPGKTATITCGGNNFRNKRVHWYQQRPGQAPVLVIYYDSDRPSGIPERFSGSRSGNTATLTISRVEAGDEADFYCQVWDFLADEAMFGGGTKLTVLGAAAH
notes: as for B1
B5: 368D04 scFv (non-germlined) (scFv)
scFv: EVQLVESGGGVVRPGGSLRLSCAASGFTFDDYGMNWVRQAPGKGLEWVSGVNWNGGTRDYAASVKGRFTISRDNAKNSLYLQMNSLRAEDTALYYCARGWYSGAAWNMGYWGRGTLVTVSSGGGGSGGGGSGGSGGGSGGGGGGSGGGGSAQAVLTQPSSVSGSPGQSITISCTGASGDVGAYNFVSWYQQHPGKTPKLIIYDVNKRPSGVSNRFSGSKSGNTASLTISGLQAEDESDYYCASLVSDFSVVFGGGTKVTVLGAAAH
notes: as for B3
B6: 355E04 scFv (non-germlined) (scFv)
scFv: QVQLVQSGAEVKKPGASVKVSCKASGYTFTHYYMHWVRQAPGQGLEWVGWINPYTGGAFYAQKFQGRVTMTRDTSINTAYMELSRLGSDDTAVYYCAREPEKFDSPNAEIWGRGTMVTISSEGGGSGGGGSGGSGSAQAVLTQPSSVSGAPGQRVTISCTGSSSNIGAGYGVHWYQQLPGTAPKLLIYGNSNRPSGVPDRFSGSKSGTSASLAITGLQAEDEADYYCQSYDSSLSGYVFGTGTQLTVLSA
notes: as for B2
B7: 356A11 scFv (non-germlined) (scFv)
scFv: QVQLVQSGAEVKKPGASVKVSCKASGYTFTNYYMHWVRQAPGQGLEWVGWINPYTGSAFYAQKFRGRVTMTRDTSINTAYMELSRLGSDDTAVYYCAREPEKFDSDDSDVWGRGTMVTVSGGGGSSGGGGSGGSGSAQAVLTPPSVSGAPGQRVTISCTGSSSNIGAGYGVHWYQQLPGTAPKLIIYGDSSRPSGVPDRFSGSKSGTSASLAITGLQAEDEADYYCQSYDNSLSGYVFGTGTQLTVLSA
notes: as for B2
B8: 087B03 scFv (non-germlined) (scFv)
scFv: EVQLVESGGGVVRPGGSLRLSCAASGFTFDDYGMNWVRQAPGKGLEWVSGVNWNGGTRDYAASVKGRFTISRDNAKNSLYLQMNSLRAEDTALYYCARGWYSGAAWNMGYWGRGTLVTVSSGGGGSGGGGSGGGGSAQAVLTQPSSVSGSPGQSITISCTGASGDVGAYNFVSWYQQHPGKTPKLIIYDVNKRPSGVSNRFSGSKSSNTASLTISGLQAEDESDYYCSSYTSTFSVVFGGGTKVTVLGAAAH
notes: as for B3
B9: 354A08 scFv (non-germlined) (scFv)
scFv: QVQLVQSGAEKKPGASVKVSCKASGYTFTDYYMHWVRQAPGQGLEWVGWINPYTGGAFYAQKFRGRVTMTRDTSINTAYMELSRLGSDDTAVYYCAREPERFGDSTGQVWGRGTMVTVSSGGGGSGGGGSGGSRSAQAVLTQPSSVSGAPRQRVTISCTGSSSNIGAGYGVHWYQQLPGTAPKLLIYGNSNRPSGVPDRFSGSKSGTSASLAITGLQAEDEADYYCYHWDKEQSGYVFGTGTQLTVLSA
notes: as for B2
B10: 376B10 scFv (non-germlined) (scFv)
scFv: EVQLVQSGAEVKKPGASVKVSCQASGYTFSDYYIHWVRQTPGQGFEWMGWVNPDTGGTRYAQKFQGWVTMTRDMSNTTAYMELPGLRDDDTAVYYCARDLTGYDQYTAWGQGTLVTVSSGGGGSGGGGSGGGGSAQSVLTQPPSVSVAPGKTATITCGGNNFRNKRVHWYQQRPGQAPVLVIYYDSDRPSGIPERFSGSRSGNTATLTISRVEAGDEADFYCSTFDPFTDRPLFGGGTKLTVLGAAAH
notes: as for B1
B11: 062G05 scFv (non-germlined) (scFv)
scFv: QVQLVESGAEVKKPGASVKVSCKASGYTFTSYGISWVRQAPGQGLEWMGWISAYTGNTNYAQKFQGRVTMTTDTSTSTAYMELRSLRSDDTAVYYCARDRGYYDAFDIWGQGTLVTVSSGGGGSGGGGSGGGGSDIQMTQSPSTLSASIGDRVTITCRASEGIYHWLAWYQQKPGKAPKLLIYKASSLASGAPSRFSGSGFGTDFTLTISSLQPDDFATYYCQQMGEWKAAFGGGTKLEIKRAAAH
notes: Optimized clone derived from GIL16
B12: 062A09 scFv (non-germlined) (scFv)
scFv: B11 scFv with I51V, S85G, F106Y, W228Y, K229N, A231T, F232I
notes: as for B11
B13: 097D09 scFv (non-germlined) (scFv)
scFv: EVQLVESGGGLVTPGGSLRLSCAASGFTFSDYYMSWVRQAPGRGLEWVSAISGSGGSTYYADSVKGRITISRDNAKNSLYLQMSSLRSEDTAVYYCARGLWVWDPLDYWGRGTLVTVSSGGGGSGGGGSGGGGSDIQMTQSPSTLSASIGDRVTITCRASEGIYHWLAWYQQKPGKAPKLLIYKASSLASGAPSRFSGSGFGTDFTLTISSLQPDDFATYYCQQYSEFAWTFGGGTKLEIKRAAAH
notes: Optimized clone derived from GIL01
B14: 062G05 IgG (non-germlined) (antibody, V domains shown)
VH: QVQLVESGAEVKKPGASVKVSCKASGYTFTSYGISWVRQAPGQGLEWMGWISAYTGNTNYAQKFQGRVTMTTDTSTSTAYMELRSLRSDDTAVYYCARDRGYYDAFDIWGQGTLVTVSS
VL: DIQMTQSPSTLSASIGDRVTITCRASEGIYHWLAWYQQKPGKAPKLLIYKASSLASGAPSRFSGSGFGTDFTLTISSLQPDDFATYYCQQMGEWKAAFGGGTKLEIKR
notes: IgG
B15: 062A09 (antibody, V domains shown)
VH: B14 VH with E6Q, I51V
VL: B14 VL with I15V, A58V, F67S, D70E, W94Y, K95N, A97T, L104V
notes: The list MOLECULES holds only the non-germlined 062A09 IgG; also called 062A09 germlined IgG

target: T1, human IL-22 (human, UniProt Q9GZX6 34-179); assay: cell-based or functional assay
T1 sequence: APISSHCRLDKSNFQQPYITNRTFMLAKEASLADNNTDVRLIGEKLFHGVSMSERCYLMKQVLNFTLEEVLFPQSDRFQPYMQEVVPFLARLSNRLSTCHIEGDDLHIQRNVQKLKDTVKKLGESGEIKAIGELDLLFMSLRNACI

Binder	IC50 of scFv in BaF3-IL-22 proliferation assay	IC50 of IgG in BaF3-IL-22 proliferation assay
B1	204 pM	
B2	183 pM	
B3	160 pM	
B4	118 pM	
B5	186 pM	
B6	192 pM	
B7	124 pM	
B8	212 pM	
B9	219 pM	
B10	104 pM	
B11	182 pM	
B12	267 pM	
B13	298 pM	
B14		112 pM

target: T2, biotinylated IL-22 with an N-terminal His/FLAG tag (bio.IL-22H/F) (human, UniProt Q9GZX6 34-179, biotinylated (site not stated)); assay: DELFIA competition assay: scFv titrated against bio.IL-22H/F binding to the captured IL-22 receptor complex
T2 construct: not shown: N-terminal His/FLAG tag
T2 sequence: T1 sequence
Procedure: Microtiter plates were coated with an IL-22 receptor complex antibody (1 μg/ml in PBS), and incubated for 1.5 hours at room temperature. Plates were washed three times in PBST, and blocked for 1 hour at room temperature with 2% MPBS. After a further 3 washes, diluted cell conditioned medium containing an IL-22 receptor complex was added and incubated overnight at 4° C. Crude scFv supernatants were prepared as described above. The following day, 25 μl of diluted scFv sample and 25 μl of bio.IL-22H/F (6 ng/ml) were added to the washed plates, and incubated for 1.5 hours at room temperature. Plates were washed 3 times in PBST, then binding of bio.IL-22H/F to the IL-22 receptor complex was detected with Europium-Streptavidin and the DELFIA® reagent kit (PerkinElmer). Time Resolved Fluorescence was measured using a Victor 2™ Plate Reader (Perkin Elmer).
Purified scFv from positive clones identified from the screening were tested in the DELFIA® IL-22 receptor complex competition assay as described above. A titration of scFv concentrations was used in order to establish the clone potency as measured by IC₅₀ values in the assay. Fourteen optimized clones were designated 097D09, 062A09, 062G05, 087B03, 367D04, 368D04, 166B06, 166G05, 375G06, 376B10, 354A08, 355B06, 355E04, and 356A11.

Binder	IC50
B1	0.19 nM
B2	0.18 nM
B3	0.33 nM
B4	0.44 nM
B5	0.32 nM
B6	0.41 nM
B7	0.55 nM
B8	0.12 nM
B9	0.16 nM
B10	0.79 nM
B11	0.1 nM
B12	0.13 nM
B13	0.39 nM

target: T3, BSA (bovine, UniProt P02769); assay: ELISA: wells labelled BSA, IgG at 1 µg/ml, HRP anti-human IgG, A450
T3 construct: background wells labelled BSA; also called bovine serum albumin
Procedure: (§1) Cross species reactivity of germlined and non-germlined optimized antibodies were determined as follows: ELISA plates (Costar, Cat. #3590) were coated overnight with 1 μg/ml of rat, mouse, or human IL-22 or human IL-26 in PBS buffer. Plates were washed with PBST buffer (0.05% Tween20 in PBS) 3 times, then blocked with 1% BSA (Sigma A8918)/PBST for 1 hr at RT. Antibodies were added at 1 μg/ml, incubated 1 hr at 25° C. […] The plates were incubated for 1 hour at 25° C., then washed with PBST, and developed with TMB (KPL, Cat. #50-76-04). Reaction was stopped with 0.18 M H₂S0₄. Plates were read at OD 450 nm.

T3 sequence (P02769 25-607 limits assumed): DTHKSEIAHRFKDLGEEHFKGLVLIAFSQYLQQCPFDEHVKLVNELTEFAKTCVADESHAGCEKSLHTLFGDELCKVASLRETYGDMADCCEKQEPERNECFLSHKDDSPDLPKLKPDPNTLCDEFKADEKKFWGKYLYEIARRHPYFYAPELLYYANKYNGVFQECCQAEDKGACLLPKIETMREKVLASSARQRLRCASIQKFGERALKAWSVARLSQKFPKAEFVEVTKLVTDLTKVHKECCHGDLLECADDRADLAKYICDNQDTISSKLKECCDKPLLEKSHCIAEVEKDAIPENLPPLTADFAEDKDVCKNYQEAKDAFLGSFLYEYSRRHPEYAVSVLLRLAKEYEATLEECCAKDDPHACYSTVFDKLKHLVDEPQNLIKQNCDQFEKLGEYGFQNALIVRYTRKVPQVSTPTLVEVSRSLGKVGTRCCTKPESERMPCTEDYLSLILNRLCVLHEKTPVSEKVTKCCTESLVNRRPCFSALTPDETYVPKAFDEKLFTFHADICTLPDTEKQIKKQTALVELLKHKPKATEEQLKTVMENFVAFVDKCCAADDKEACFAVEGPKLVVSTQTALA

Binder	binding result
B15	no binding (tested: 1 µg/ml (single concentration))
B14	no binding (tested: 1 µg/ml (single concentration))

target: T4, IL-26 (human, UniProt Q9NPH9); assay: ELISA: plate coated with 1 µg/ml human IL-26, IgG at 1 µg/ml, HRP anti-human IgG, A450
T4 construct: coated on the ELISA plate at 1 µg/ml; also called human IL-26
T4 sequence (cytokine, looked up): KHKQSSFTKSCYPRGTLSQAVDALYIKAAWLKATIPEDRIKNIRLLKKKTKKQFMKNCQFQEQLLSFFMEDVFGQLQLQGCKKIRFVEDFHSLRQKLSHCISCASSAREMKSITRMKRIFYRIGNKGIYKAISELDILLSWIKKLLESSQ
Procedure: as §1

Binder	binding result
B15	no binding (tested: 1 µg/ml (single concentration))
